Laboratory results taken from patent US20070166787A1 (YEDA RESEARCH AND DEVELOPMENT, published 2007).
Numbering of substitutions follows the chain as printed. Names may count otherwise.

T1: intracellular domain of the human p75 TNF receptor (human, UniProt P20333 288-461, limits assumed)
T1 construct: domain: intracellular domain; Irrelevant control in the two-hybrid specificity test; construct not described; also called p75 IC
T1 sequence (looked up): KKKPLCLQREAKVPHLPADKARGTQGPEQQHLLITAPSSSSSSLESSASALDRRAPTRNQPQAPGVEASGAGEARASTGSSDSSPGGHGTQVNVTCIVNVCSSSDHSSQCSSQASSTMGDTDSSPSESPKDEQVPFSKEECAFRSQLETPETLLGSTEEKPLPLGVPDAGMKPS

T2: SNF 1 (UniProt P06782 1-633, limits assumed)
T2 sequence (looked up): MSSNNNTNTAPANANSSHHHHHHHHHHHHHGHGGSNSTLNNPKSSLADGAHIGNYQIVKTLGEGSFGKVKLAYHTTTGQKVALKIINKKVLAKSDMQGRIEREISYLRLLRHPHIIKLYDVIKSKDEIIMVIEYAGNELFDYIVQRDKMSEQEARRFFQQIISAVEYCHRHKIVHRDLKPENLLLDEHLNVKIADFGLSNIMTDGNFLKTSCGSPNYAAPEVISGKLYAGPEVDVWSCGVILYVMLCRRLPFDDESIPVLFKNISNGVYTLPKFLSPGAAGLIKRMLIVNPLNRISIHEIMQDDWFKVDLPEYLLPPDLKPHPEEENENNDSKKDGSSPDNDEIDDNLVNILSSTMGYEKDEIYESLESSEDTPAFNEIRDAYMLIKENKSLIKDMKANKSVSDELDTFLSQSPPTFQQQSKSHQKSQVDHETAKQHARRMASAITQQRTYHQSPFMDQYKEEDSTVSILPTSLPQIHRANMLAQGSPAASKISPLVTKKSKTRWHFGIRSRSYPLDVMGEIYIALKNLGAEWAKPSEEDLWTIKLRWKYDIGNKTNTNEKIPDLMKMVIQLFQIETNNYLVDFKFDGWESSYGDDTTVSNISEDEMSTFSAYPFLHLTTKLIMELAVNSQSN

B1: death domain (DD) of human p55 TNF-R, residues 326-426, Gal4 hybrid construct (receptor, not shown: large carriers)
chain: DPATLYAVVENVPPLRWKEFVRRLGLSDHEIDRLELQNGRCLREAQYSMLATWRRRTPRREATLELLGRVLRDMDLLGCLEDIEEALCGPAALPPAPSLLR
notes: Yeast two-hybrid fusion; also called p55-R; p55 TNF-R DD
B2: human p55 TNF-R DD (residues 326-426) point mutant L351N, Gal4 hybrid construct (receptor, not shown: large carriers)
chain: B1 chain with L26N
notes: Legend prints 'L35IN'; also called p55-R L35IN; p55 TNF-R (L351N)
B3: death domain (DD) of human MORT-1, residues 92-208, Gal4 hybrid construct (other, not shown: large carriers)
chain: PGEEDLCAAFNVICDNVGKDWRRLARQLKVSDTKIDSIEDRYPRNLTERVRESLRIWKNTEKENATVAHLVGALRSCQMNLVADLVQEVQQARDLQNRSGAMSPMSWNSDASTSEAS
notes: Yeast two-hybrid fusion; also called MORT-1 DD; HF1
B4: death domain (DD) of human TRADD, residues 195-312, Gal4 hybrid construct (other, not shown: large carriers)
chain: PPPPAQTFLFQGQPVVNRPLSLKDQQTFARSVGLKWRKVGRSLQRGCRALRDPALDSLAYEYEREGLYEQAFQLLRRFVQAEGRRATLQRLVEALEENELTSLAEDLLGLTDPNGGLA
notes: Yeast two-hybrid fusion; also called TRADD DD
B5: DD of the rat low-affinity NGF receptor (receptor, UniProt P07174 340-425, looked up)
chain: LPLTKREEVEKLLNGDTWRHLAGELGYQPEHIDSFTHEACPVRALLASWGAQDSATLDALLAALRRIQRADIVESLCSESTATSPV
notes: domain: DD; Control in the two-hybrid specificity test; construct not described; also called rat NGF-R DD

What was measured:
[1] = target: B3; assay: yeast two-hybrid, beta-galactosidase filter assay, SFY526
Source text: (§1) Two-Hybrid β-Galactosidase Expression Tests. cDNA inserts were cloned by PCR, either from the full-length cDNAs cloned previously in our laboratory, or from purchased cDNA libraries. Residue numbering in the proteins encoded by the cDNA inserts are as in the Swiss-Prot Data Bank. Point mutants were produced by oligonucleotide-directed mutagenesis (Kunkel, 1994). β-galactosidase expression in yeasts (SFY526 reporter strain (Bartel et al, 1993)) transformed with these cDNAs in the pGBT-9 and pGAD-GH vectors (DNA binding domain (DBD) and activation domain (AD) constructs, respectively) was assessed by a filter assay (Boldin et al, 1995). When expressed in the pGAD-GH vector, RIP and its DD had some cytotoxic effect on the yeasts, manifested in a low yield of yeast colonies.
(§2) The interactions of the DDs of human p55 TNF-R, FAS-R, TRADD, MORT-1 and RIP were evaluated first by a yeast two-hybrid test. The cDNAs encoding these domains were expressed as fusion proteins with the Gal4 DNA binding and activation domains (DBD and AD constructs) in the yeast SFY526 reporter strain, and the binding of these fusion proteins to each other was assessed by determining β-galactosidase expression by the yeasts. The results of these tests are summarized in FIG. 1 and illustrated diagrammatically in FIG. 3.

[2] = target: B4; assay: yeast two-hybrid (summing up of Example 2)
Source text: as §1, §2

[3] = target: T1, intracellular domain of the human p75 …; assay: yeast two-hybrid specificity test (not shown)
[4] = target: T2, SNF 1; assay: yeast two-hybrid specificity test (not shown)
[5] = target: the molecule itself; assay: yeast two-hybrid, beta-galactosidase filter assay
Source text: (§3) FIG. 2 depicts interactions of the ‘death domains’ of the P55-R, Fas/APOI, MORT-1, TRADD and. RIP in a yeast two-hybrid test, and the effect of lbr^cg-like mutations in these proteins on their interactions. Assessment of the interaction of Gal4 hybrid constructs encompassing the following human proteins, truncated upstream to their DD motifs: p55-R (residues 326-426), FAS-R (residues 210-319), MORT-1 (residues 92-208), TRADD (residues 195-312) and RIP (residues 261-372), as well as of the following points mutants of these proteins: p55-R L35IN, FAS-R V238N, MORT-1 V121N, and RIP F308N, whose mutation sites within the DDs correspond to that found in the FAS-R of the lpr^cg mice. Each cDNA insert was introduced both into the Gal4 DNA binding domain (DBD) and the Gal4 activation domain (AD) constructs (pGBT9 abd pGAD-GH), and the binding of the inserts in both constructs to all other inserts within transfected SFY526 yeasts was assessed by a β-galactosidase expression filter assay. The results are presented in terms of the time required for development of strong color. ND—not done.
as §1

[6] = target: B3; assay: yeast two-hybrid, beta-galactosidase filter assay
Source text: as §3, §1

[7] = target: B4; assay: yeast two-hybrid, beta-galactosidase filter assay
Source text: as §3, §1

[8] = target: B4; assay: yeast two-hybrid, beta-galactosidase filter assay, SFY526
Source text: as §1, §2

[9] = target: the molecule itself; assay: yeast two-hybrid, self-association, beta-galactosidase filter assay, SFY526
Source text: as §1, §2

[10] = target: the molecule itself; assay: yeast two-hybrid, beta-galactosidase filter assay, SFY526
Source text: as §1, §2

[11] = target: B1; assay: yeast two-hybrid specificity test (not shown)
[12] = target: B3; assay: yeast two-hybrid specificity test (not shown)
[13] = target: B4; assay: yeast two-hybrid specificity test (not shown)

B1: no binding [1]; binds [2]; no binding [3]. B1: no binding [4].

B2: no binding [5]; no binding [6]; no binding [7].

B3: binds [8]; no binding [9]; no binding [3]. B3: no binding [4].

B4: binds [10]; no binding [3]; no binding [4].

B5: no binding [11]; no binding [12]; no binding [13].
